From patent US6495317B1, “DNA encodingmannose 6-phosphate reductase and recombinants produced therefrom” (Board of Trustees of Michigan State University, priority 1996, dated 2002)
Read-outs that look alike come from different tables or passages of the source.

Key:
[1] = test system: mannose 6-phosphate reductase (M6PR); assay: M6PR activity assay (NADPH oxidation), specific activity of purified enzyme; assay type: biochemical, celery (Apium graveolens)
Method: Three putative M6PR and one non-positive clone (as determined by antibody screening) were tested for M6PR activity. Duplicate 10 ml cultures of each clone were grown in LB+ampicillin (amp; […]). Once an average OD600 of 0.5 had been attained one culture of each pair was induced by the addition of isopropyl-β-D-thiogalactopyranoside (IPTG; final concentration 10 mM). […] Cultures were maintained at 30° C. for a further 3 h and were harvested at an average OD600 of 1.29±0.02. Cells were pelleted by centrifugation (2000×g for 5 min) and washed twice by resuspending the pellets in 5 ml Tris (100 mM, pH 7.5) containing […], with a centrifugation step between each wash. After the final wash pelleted cells were maintained on ice. Just prior to disruption the cells were resuspended in 4 ml of extraction buffer (100 mM Tris-HCl pH 7.5, […], 10 mM DTT and 0.1% Triton X-100) and transferred to blood dilution vials (American Scientific Products, McGaw Park, Ill.). Cells were ruptured by suspending the vial containing the cells 0.5 cm above the cuphorn probe of a Heat Systems W-385 sonicator (Misonics Farmingdale, N.Y.) and subjecting them to 2 minutes sonication at full power. Coolant was circulated around the vial to maintain the temperature at approximately 4° C. After sonication, 1.5 ml aliquots of the homogenate were centrifuged at 13,000×g for 5 minutes at 4° C. […]

[2] = test system: mannose 6-phosphate reductase (M6PR); assay: Kinetic characterization of purified M6PR (mannose 6-phosphate and NADPH kinetics); assay type: biochemical, celery (Apium graveolens); conditions: 30° C., 33 mM Tris-HCl pH 7.5, 3 mM DTT; for Km: read-out: km
Source text: Subsequent purification steps were essentially as described in Loescher et al., Plant Physiol. 98:1396-1402 (1992) except for Reactive Yellow 86 (RY86) chromatography. Here the active fraction from the gel filtration step was split in two, and each fraction run separately on the RY86 column as described in Loescher et al., Plant Physiol. 98:1396-1402 (1992). The active fractions were pooled and either diluted by the addition of 0.5 v of column buffer or desalted using centrifugal concentrating devices (30 kD cut-off membranes) and washed with 2 volumes of column buffer. This step was performed to dilute or remove NADPH. The sample was then loaded back onto the RY86 column and activity eluted in a linear gradient between 0 and 0.2 mM NADPH in column buffer. The purified M6PR was desalted and concentrated using centrifugal filtration and was either used immediately for kinetic characterization or stored at −21° C. after adding glycerol (1:1, v:v).

B1: Recombinant M6PR: mannose 6-phosphate reductase purified from IPTG-induced E. coli clone D carrying celery cDNA (SEQ ID NO:2) (protein)
chain: MAITLNSGFKMPVLGLGVWRMDRNEIKNLLLSAINLGYRHFDCAADYKNELEVGEAFKEAFDTDLVKREDLFITTKLWNSDHGHVIEACKNSLKKLQLEYLDLYLIHFPMASKHSGIGTTRSILDDEGVWEVDATISLEATWHEMEKLVEMGLVRSIGISNYDVYLTRDILSYSKIKPAVNQIETHPYFQRDSLIKFCQKYGIAITAHTPLGGALANTERFGSVSCLDDPVLKKLSDKHNKSPAQIVLRWGVQRNTIVIPKSSKTKRLEENINIFDFELSKEDMELIKTMERNQRSNTPAKAWGIDVYA
[1]; average of three preparations, 1 mU = 1 nmol NADPH oxidized per minute
  average specific activity of the purified enzyme: 3926±833 mU/mg protein
[1]; final two preparations
  specific activity of the purified enzyme: 4441±13 mU/mg
[2]; 9 NADPH concentrations 1-50 μM, mannose 6-phosphate 12 mM
  Vmax; NADPH: 6.0 ± 2.3 (2;3) μmol mg prot^−1 min^−1
[2]; 9 NADPH concentrations 1-50 μM, mannose 6-phosphate 12 mM, NADPH
  Km: 0.0062 ± 0.0024 mM
[2]; 12 M6P concentrations 1-50 mM, saturating NADPH 200 μM
  Vmax; mannose 6-P: 8.0 ± 1.9 (4;6) μmol mg prot^−1 min^−1
[2]; 12 M6P concentrations 1-50 mM, saturating NADPH 200 μM, mannose 6-P
  Km: 10.1 ± 1.4 mM
